Where two headings read alike, the source gives them in different places. One block for each binder: values may come before it. Bridge positions count the residues as written; N and C are the ends. Square brackets hold non-standard residues; d marks the D form. Ends that are not written are not given here. mXylyl = xylyl linker from dibromoxylene joining the two cysteines; NMeW = CN[C@@H](Cc1c[nH]c2ccccc12)C(=O)O; NMeY = CN[C@@H](Cc1ccc(O)cc1)C(=O)O; NMeT = CN[C@H](C(=O)O)[C@@H](C)O; Phg = N[C@H](C(=O)O)c1ccccc1; NMeS = CN[C@@H](CO)C(=O)O; NMeA = CN[C@@H](C)C(=O)O; Nva = CCC[C@H](N)C(=O)O
Columns and labels:
Experiment in all cases: cell-based or functional assay
[1] = target: T1, Activated human plasma kallikrein (Enzyme Research Laboratories, HPKa 1303) (human, UniProt P03952 20-638)
T1 sequence (P03952 20-638 limits assumed): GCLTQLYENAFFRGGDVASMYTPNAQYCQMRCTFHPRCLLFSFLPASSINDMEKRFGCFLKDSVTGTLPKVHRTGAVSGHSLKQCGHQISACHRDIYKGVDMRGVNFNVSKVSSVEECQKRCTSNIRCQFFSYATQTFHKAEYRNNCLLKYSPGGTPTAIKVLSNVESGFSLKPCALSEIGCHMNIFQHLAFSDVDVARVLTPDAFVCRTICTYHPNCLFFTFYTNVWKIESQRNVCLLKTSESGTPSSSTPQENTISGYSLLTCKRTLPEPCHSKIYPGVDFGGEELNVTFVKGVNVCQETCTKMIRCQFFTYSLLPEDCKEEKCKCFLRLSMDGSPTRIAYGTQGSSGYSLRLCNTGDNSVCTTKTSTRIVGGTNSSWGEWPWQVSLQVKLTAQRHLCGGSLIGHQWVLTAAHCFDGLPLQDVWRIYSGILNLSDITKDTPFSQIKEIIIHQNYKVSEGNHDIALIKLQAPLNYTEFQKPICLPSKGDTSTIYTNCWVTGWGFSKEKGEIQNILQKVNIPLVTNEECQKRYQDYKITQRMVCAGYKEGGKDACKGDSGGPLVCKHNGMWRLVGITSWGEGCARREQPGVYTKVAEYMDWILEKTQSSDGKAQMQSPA

[2] = target: T2, Factor VIIa (Enzyme Research Laboratories) (human, UniProt P08709 61-466)
T2 sequence (looked up): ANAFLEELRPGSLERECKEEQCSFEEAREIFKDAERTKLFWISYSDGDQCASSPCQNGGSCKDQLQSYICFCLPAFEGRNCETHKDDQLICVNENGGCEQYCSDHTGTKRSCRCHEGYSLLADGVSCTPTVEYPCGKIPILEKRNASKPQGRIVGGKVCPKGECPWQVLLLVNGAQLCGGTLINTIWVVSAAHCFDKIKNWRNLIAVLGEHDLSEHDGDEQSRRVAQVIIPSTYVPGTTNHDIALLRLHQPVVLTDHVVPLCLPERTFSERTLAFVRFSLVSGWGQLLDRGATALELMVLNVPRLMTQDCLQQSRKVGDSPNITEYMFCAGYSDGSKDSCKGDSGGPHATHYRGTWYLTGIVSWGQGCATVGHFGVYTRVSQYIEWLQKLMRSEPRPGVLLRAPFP

[3] = target: Factor Xa (Enzyme Research Laboratories) (human, UniProt P00742 41-488, limits assumed)
Chain of Factor Xa (Enzyme Research Laboratories) (P00742 41-488 limits assumed): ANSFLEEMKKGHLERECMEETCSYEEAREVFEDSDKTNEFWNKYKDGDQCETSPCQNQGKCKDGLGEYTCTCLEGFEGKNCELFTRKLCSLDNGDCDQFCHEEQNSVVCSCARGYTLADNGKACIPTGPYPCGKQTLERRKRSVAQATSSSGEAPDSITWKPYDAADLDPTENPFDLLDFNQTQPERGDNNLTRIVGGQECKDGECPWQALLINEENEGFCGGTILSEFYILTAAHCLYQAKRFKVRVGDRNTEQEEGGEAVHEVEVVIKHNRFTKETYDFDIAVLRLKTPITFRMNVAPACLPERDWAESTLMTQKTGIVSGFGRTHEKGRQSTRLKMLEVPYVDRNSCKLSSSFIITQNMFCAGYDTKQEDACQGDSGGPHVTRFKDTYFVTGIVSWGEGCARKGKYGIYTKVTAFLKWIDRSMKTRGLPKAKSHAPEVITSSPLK

[4] = target: mouse plasma kallikrein (R&D Systems) (mouse, UniProt P26262 20-638)
Chain of mouse plasma kallikrein (R&D Systems) (P26262 20-638 limits assumed): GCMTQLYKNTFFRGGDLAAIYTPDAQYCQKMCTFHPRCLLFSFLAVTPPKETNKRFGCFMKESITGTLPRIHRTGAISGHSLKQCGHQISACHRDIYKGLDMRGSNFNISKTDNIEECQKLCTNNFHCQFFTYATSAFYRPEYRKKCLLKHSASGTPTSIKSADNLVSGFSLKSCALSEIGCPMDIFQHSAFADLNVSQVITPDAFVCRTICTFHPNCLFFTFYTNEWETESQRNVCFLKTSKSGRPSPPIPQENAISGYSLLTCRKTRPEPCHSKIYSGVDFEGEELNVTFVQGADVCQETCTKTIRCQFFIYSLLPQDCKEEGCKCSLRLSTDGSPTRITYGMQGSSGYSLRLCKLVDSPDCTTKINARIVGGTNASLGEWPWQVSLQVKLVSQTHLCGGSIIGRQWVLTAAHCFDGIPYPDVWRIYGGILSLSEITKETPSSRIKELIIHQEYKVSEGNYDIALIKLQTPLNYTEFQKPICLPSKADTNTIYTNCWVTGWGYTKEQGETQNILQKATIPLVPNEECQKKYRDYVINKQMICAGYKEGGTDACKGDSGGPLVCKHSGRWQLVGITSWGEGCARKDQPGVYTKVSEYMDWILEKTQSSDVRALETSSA

[5] = target: T1, Activated human plasma kallikrein …; remark: listed apart in the source
[6] = target: Factor XIa (Enzyme Research Laboratories) (human, UniProt P03951 19-625)
Chain of Factor XIa (Enzyme Research Laboratories) (P03951 19-625 limits assumed): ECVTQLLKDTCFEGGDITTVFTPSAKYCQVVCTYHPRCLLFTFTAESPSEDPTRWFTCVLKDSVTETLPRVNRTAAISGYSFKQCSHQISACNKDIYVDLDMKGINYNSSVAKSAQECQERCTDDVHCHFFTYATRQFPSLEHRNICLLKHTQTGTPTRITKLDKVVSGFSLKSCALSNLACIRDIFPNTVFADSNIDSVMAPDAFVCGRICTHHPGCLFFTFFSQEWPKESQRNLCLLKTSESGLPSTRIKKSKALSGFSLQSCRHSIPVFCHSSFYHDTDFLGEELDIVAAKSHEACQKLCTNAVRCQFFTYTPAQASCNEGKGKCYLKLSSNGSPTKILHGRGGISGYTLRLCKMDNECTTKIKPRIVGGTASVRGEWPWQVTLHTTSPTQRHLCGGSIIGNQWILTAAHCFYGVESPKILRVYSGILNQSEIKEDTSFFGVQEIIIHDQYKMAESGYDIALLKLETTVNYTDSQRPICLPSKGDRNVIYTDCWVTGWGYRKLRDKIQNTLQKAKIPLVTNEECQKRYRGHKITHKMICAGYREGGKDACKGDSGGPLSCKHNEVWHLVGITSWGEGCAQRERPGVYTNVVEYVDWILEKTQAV

[7] = target: T1, Activated human plasma kallikrein …; remark: listed apart in the source
[8] = target: T3, tissue kallikrein KLK13 (R&D Systems) (human, UniProt Q9UKR3 17-277, limits assumed)
T3 sequence (looked up): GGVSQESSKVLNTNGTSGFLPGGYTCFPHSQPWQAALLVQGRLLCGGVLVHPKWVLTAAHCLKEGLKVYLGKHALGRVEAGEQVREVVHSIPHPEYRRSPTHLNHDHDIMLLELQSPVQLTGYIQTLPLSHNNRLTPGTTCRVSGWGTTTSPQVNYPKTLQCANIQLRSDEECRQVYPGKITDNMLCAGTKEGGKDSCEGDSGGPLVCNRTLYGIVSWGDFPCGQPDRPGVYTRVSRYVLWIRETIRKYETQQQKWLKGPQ

[9] = target: thrombin (Enzyme Research Laboratories) (human, UniProt P00734 328-622)
[10] = target: T4, Factor XIIa (Enzyme Research Laboratories) (human, UniProt P00748 20-615, limits assumed)
T4 sequence (looked up): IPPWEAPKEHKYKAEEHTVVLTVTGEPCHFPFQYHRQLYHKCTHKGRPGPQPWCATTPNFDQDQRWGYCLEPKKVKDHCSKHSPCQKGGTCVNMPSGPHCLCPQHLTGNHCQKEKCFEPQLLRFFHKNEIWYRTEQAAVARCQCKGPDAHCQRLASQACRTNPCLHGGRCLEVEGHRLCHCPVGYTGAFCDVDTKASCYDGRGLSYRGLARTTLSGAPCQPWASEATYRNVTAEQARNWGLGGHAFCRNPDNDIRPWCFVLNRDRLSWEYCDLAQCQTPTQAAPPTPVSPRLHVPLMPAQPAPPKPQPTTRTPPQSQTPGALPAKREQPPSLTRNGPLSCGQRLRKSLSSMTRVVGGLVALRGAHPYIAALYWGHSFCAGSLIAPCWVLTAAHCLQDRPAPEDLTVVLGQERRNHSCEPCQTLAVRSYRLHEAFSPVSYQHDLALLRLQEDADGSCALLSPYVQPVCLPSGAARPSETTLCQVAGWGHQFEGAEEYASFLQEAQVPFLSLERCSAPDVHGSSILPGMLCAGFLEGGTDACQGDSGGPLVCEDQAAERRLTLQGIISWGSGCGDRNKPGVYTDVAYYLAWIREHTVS

[11] = target: plasmin (Enzyme Research Laboratories) (human, UniProt P00747 97-810, limits assumed)
Chain of plasmin (Enzyme Research Laboratories) (P00747 97-810 limits assumed): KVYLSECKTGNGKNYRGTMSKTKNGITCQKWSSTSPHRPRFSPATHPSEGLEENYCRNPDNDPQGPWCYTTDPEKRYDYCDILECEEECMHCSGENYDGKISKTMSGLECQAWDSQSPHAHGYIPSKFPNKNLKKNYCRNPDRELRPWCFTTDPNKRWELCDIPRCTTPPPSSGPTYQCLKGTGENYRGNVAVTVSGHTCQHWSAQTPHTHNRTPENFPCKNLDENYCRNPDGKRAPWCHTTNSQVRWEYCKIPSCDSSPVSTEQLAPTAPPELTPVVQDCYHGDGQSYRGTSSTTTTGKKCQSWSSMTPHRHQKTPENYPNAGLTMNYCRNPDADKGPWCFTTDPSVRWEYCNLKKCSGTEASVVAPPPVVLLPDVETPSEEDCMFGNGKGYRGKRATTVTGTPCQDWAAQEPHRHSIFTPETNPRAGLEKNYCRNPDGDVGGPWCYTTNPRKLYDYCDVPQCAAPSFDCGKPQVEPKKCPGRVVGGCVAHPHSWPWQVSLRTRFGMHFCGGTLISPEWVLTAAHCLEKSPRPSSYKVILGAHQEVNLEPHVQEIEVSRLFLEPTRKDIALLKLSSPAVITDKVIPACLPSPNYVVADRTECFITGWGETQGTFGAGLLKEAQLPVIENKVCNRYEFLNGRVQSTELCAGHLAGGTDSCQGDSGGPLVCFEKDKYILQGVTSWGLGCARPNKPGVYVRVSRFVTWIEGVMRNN

[12] = target: T1, Activated human plasma kallikrein …; remark: listed apart in the source

Binder: MCE[NMeS]ICRV-NH2 (linker 2-6 via mXylyl) [R2019]
Factor VIIa IC50 [2]: > 100000 nM | Factor Xa IC50 [3]: > 10000 nM | Mouse Kallikrein IC50 [4]: 85.6 nM | Human Kallikrein IC50 [5]: 52.3 nM | Factor XIa IC50 [6]: > 9100 nM | Avg. IC50 [7]: 52.3 nM | KLK13 IC50 [8]: > 16400 nM | Thrombin IC50 [9]: > 100000 nM | Factor XIIa IC50 [10]: > 12500 nM | Plasmin IC50 [11]: > 21000 nM

Binder: Ac-C[dN]YWSPWTAC-NH2 (cysteine pairing not given here) [R2233]
Avg. IC50 [1]: 305 nM

Binder: Ac-CNYWS[dP]WTAC-NH2 (cysteine pairing not given here) [R2229]
Avg. IC50 [1]: > 14300 nM

Binder: Ac-CNYWSPWAAC-NH2 (cysteine pairing not given here) [R2146]
Avg. IC50 [12]: 17.5 nM

Binder: Ac-CNYWSP[NMeW]TAC-NH2 (cysteine pairing not given here) [R2236]
Avg. IC50 [1]: > 4900 nM

Binder: Ac-CNYWSPWT[NMeA]C-NH2 (cysteine pairing not given here) [R2234]
Avg. IC50 [1]: 2.7 nM

Binder: Ac-CNY[NMeW]SPWTAC-NH2 (cysteine pairing not given here) [R2238]
Avg. IC50 [1]: > 4520 nM

B1: R2142 (peptide)
peptide: Ac-CNYWSPWTAC-NH2
modifications: disulfide 1-10
SMILES: CC(=O)N[C@H]1CSSC[C@@H](C(N)=O)NC(=O)[C@H](C)NC(=O)[C@H]([C@@H](C)O)NC(=O)[C@H](Cc2c[nH]c3ccccc23)NC(=O)[C@@H]2CCCN2C(=O)[C@H](CO)NC(=O)[C@H](Cc2c[nH]c3ccccc23)NC(=O)[C@H](Cc2ccc(O)cc2)NC(=O)[C@H](CC(N)=O)NC1=O
Avg. IC50 [12]: 2.7 nM

Binder: Ac-CNYWSPWT[dA]C-NH2 (cysteine pairing not given here) [R2226]
Avg. IC50 [1]: 222 nM

B2: R2140 (peptide)
peptide: Ac-CNYWSPWTA[Nva]-NH2
SMILES: CCC[C@H](NC(=O)[C@H](C)NC(=O)[C@@H](NC(=O)[C@H](Cc1c[nH]c2ccccc12)NC(=O)[C@@H]1CCCN1C(=O)[C@H](CO)NC(=O)[C@H](Cc1c[nH]c2ccccc12)NC(=O)[C@H](Cc1ccc(O)cc1)NC(=O)[C@H](CC(N)=O)NC(=O)[C@H](CS)NC(C)=O)[C@@H](C)O)C(N)=O
Avg. IC50 [12]: 105 nM

Binder: Ac-CNYWSPW[NMeT]AC-NH2 (cysteine pairing not given here) [R2235]
Avg. IC50 [1]: 101 nM

Binder: CNYWSPWTAA (also: Cyclo(1,10): ring between residues 1 and 10, bond kind not given here) [R2222]
Avg. IC50 [1]: 926 nM

Binder: Ac-CNY[dW]SPWTAC-NH2 (cysteine pairing not given here) [R2231]
Avg. IC50 [1]: 760 nM

B3: R2141 (peptide)
peptide: Ac-[Nva]NYWSPWTA[Nva]-NH2
SMILES: CCC[C@H](NC(=O)[C@H](C)NC(=O)[C@@H](NC(=O)[C@H](Cc1c[nH]c2ccccc12)NC(=O)[C@@H]1CCCN1C(=O)[C@H](CO)NC(=O)[C@H](Cc1c[nH]c2ccccc12)NC(=O)[C@H](Cc1ccc(O)cc1)NC(=O)[C@H](CC(N)=O)NC(=O)[C@H](CCC)NC(C)=O)[C@@H](C)O)C(N)=O
Avg. IC50 [12]: 157 nM

The remaining lines, values ahead:

Avg. IC50 [1]: > 13900 nM
Binder: Ac-CNYW[NMeS]PWTAC-NH2 (cysteine pairing not given here) [R2237]

Avg. IC50 [1]: > 1950 nM
Binder: Ac-CN[dY]WSPWTAC-NH2 (cysteine pairing not given here) [R2232]

Avg. IC50 [1]: 323 nM
Binder: Ac-CNYWSPW[dT]AC-NH2 (cysteine pairing not given here) [R2227]

Avg. IC50 [1]: > 100000 nM
Binder: Ac-CN[NMeY]W[NMeS]PW[NMeT]AC-NH2 (disulfide 1-10) [R2224]

Avg. IC50 [1]: > 10600 nM
Binder: Ac-CNYWSP[dW]TAC-NH2 (cysteine pairing not given here) [R2228]

Avg. IC50 [1]: > 6580 nM
Binder: Ac-CNYW[dS]PWTAC-NH2 (cysteine pairing not given here) [R2230]

Avg. IC50 [1]: 8.1 nM
Binder: Ac-CNYWSPWTA[dC]-NH2 (cysteine pairing not given here) [R2225]

Avg. IC50 [1]: > 100000 nM
Binder: Ac-CN[NMeY]W[NMeS]PW[NMeT]AC-NH2 (linker 1-10 via mXylyl) [R2223]

Mouse Kallikrein IC50 [4]: 11.3 nM | Human Kallikrein IC50 [5]: 8.3 nM | Factor XIa IC50 [6]: > 8300 nM | Avg. IC50 [7]: 8.3 nM | KLK13 IC50 [8]: > 100000 nM
Binder: MCES[Phg]CRV-NH2 (linker 2-6 via mXylyl) [R2012]

Factor VIIa IC50 [2]: > 100000 nM | Factor Xa IC50 [3]: > 7000 nM | Mouse Kallikrein IC50 [4]: 47.3 nM | Human Kallikrein IC50 [5]: 19 nM | Factor XIa IC50 [6]: > 12100 nM | Avg. IC50 [7]: 19 nM | KLK13 IC50 [8]: > 100000 nM | Thrombin IC50 [9]: > 100000 nM | Factor XIIa IC50 [10]: > 100000 nM | Plasmin IC50 [11]: > 100000 nM
Binder: Ac-CESICRV-NH2 (linker 1-5 via mXylyl) [R2023]

Avg. IC50 [12]: 48.4 nM
Binder: Ac-ANYWSPWTAC-NH2 [R2143]

Avg. IC50 [12]: 95.5 nM
Binder: Ac-CNYWSPWTAA-NH2 [R2144]

Avg. IC50 [12]: 58.8 nM
Binder: Ac-ANYWSPWTAA-NH2 [R2145]

Avg. IC50 [1]: > 12500 nM
Binder: Ac-CN[NMeY]WSPWTAC-NH2 (cysteine pairing not given here) [R2239]

From US20150166606A1 (RA PHARMACEUTICALS, published 2015)
